From PMC9437119 come the findings set out here.

This test addresses T1, Flag-tagged human Fis1 (WT) (human), Q9Y3D6.
T1 chain: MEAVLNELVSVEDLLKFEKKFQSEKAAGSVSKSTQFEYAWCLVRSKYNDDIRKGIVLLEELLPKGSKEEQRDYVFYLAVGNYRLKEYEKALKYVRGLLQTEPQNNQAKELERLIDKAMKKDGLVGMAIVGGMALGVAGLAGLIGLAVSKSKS
Kind of test: SDS-resistant oligomers on SDS-PAGE immunoblot of the immunoprecipitate; anti-myc immunoprecipitate of the Mid51/Fis1 complex from HeLa lysate heated 20 min at 55°C, 4-20% Tris-Glycine SDS-PAGE; SDS-resistant complexes detected with anti-myc (Mid51 species) or anti-Flag (Fis1 species); species normalized to monomer. Particulars: remark: other sources report otherwise. In general terms: Immunoblotting shows a protein as a band on a membrane.

B1: Flag-tagged human Fis1 (WT), Q9Y3D6 1-152 (natural protein)
chain: T1 chain
Regarding B1, the stoichiometry N was 4.

What is called stoichiometry N is a count of units in the complex or per binding partner.
